Measurements published in publication PMC7602980.

Assays:
[1] = molecular target: Cx43CT CT (Rattus norvegicus) (UniProt P08050); conditions: cited from earlier work
Cx43CT_(236-382) (rat) = Cx43CT_(236-382) (rat) (UniProt P08050)

Sequence of Drebrin (Q16643 2-649): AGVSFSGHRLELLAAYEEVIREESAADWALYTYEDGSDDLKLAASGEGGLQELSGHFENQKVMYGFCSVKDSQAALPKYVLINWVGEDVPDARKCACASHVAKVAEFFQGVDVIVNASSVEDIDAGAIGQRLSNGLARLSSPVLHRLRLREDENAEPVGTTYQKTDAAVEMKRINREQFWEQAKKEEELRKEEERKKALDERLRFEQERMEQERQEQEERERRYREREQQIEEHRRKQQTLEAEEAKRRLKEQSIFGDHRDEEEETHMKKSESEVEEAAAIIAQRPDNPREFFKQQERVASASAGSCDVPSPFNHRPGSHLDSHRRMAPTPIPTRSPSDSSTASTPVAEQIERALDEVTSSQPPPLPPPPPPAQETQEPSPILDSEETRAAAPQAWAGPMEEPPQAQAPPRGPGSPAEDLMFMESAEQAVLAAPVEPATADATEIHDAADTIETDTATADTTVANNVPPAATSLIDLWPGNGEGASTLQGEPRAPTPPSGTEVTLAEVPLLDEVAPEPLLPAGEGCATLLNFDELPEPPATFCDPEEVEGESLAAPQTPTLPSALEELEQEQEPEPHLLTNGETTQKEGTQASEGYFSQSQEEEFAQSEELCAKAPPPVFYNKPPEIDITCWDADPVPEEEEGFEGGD

Substance	Kd [1] [µM]	inhibition of ERK2 phosphorylation of GST-Cx43CT (236-382) (in vitro kinase assay, Western blot with Cx43 pS279/S282 antibodies) in presence of CaM (~90% saturation) (Cx43CT_(236-382) (rat)) [%]	inhibition of Src phosphorylation of GST-Cx43CT (236-382) (in vitro kinase assay, Western blot with Cx43 pY265 antibody) in presence of CaM (~90% saturation) (Cx43CT_(236-382) (rat)) [%]
Drebrin (from UniProt Q16643)	300	–	–
calmodulin (from UniProt P0DP23 1-149) (natural protein)	–	30	90
